Experimental data: PMC11162425

Molecular target: Lcl C-terminal domain (Lcl-CTD, residues 252 to 401) (Legionella pneumophila strain 130b)
Experiment: SEC-MALS

Substance: Lcl C-terminal domain (Lcl-CTD, residues 252 to 401) (domain or fragment)
- stoichiometry N: 3
